Sequences and labels used below:
B1: NRC3_wobSeed75_DR3_A12T_o1 (dsDNA)
DNA 1: GCTCTCGGAGGTCACGAAGGTCAGAGCTTTCCAGAGGCGATTGACAGCGTAGAATGAAGG
DNA 2: CCTTCATTCTACGCTGTCAATCGCCTCTGGAAAGCTCTGACCTTCGTGACCTCCGAGAGC
B2: NRC3_random_hg19_277_o1 (dsDNA)
DNA 1: GCGGTGGCACACGCATGGAATCCCAGCGCTTTGGGAGCGATTGACAGCGTAGAATGAAGG
DNA 2: CCTTCATTCTACGCTGTCAATCGCTCCCAAAGCGCTGGGATTCCATGCGTGTGCCACCGC
B3: NRC3_wobSeed25_DR1_T8C_o1 (dsDNA)
DNA 1: GCCAAACCAGGTCAAAGGTCAAAGTCGAGCCAACCAGCGATTGACAGCGTAGAATGAAGG
DNA 2: CCTTCATTCTACGCTGTCAATCGCTGGTTGGCTCGACTTTGACCTTTGACCTGGTTTGGC
B4: NRC3_wobSeed143_DR5_G12T_o1 (dsDNA)
DNA 1: GCAGAACGAGGTCACGCTGAGTTGATAGCAGAGTAGGCGATTGACAGCGTAGAATGAAGG
DNA 2: CCTTCATTCTACGCTGTCAATCGCCTACTCTGCTATCAACTCAGCGTGACCTCGTTCTGC
B5: NRC3_random_hg19_273_o1 (dsDNA)
DNA 1: GCTGCAGGGTTTCTACCGAGAAGTCTGCTGTTAGTCGCGATTGACAGCGTAGAATGAAGG
DNA 2: CCTTCATTCTACGCTGTCAATCGCGACTAACAGCAGACTTCTCGGTAGAAACCCTGCAGC
B6: NRC3_wobSeed93_DR3_A22C_o1 (dsDNA)
DNA 1: GCAGTCAAAGTTCATCTAGGTCACGTAAGATATGCTGCGATTGACAGCGTAGAATGAAGG
DNA 2: CCTTCATTCTACGCTGTCAATCGCAGCATATCTTACGTGACCTAGATGAACTTTGACTGC
B7: NRC3_random_hg19_177_o1 (dsDNA)
DNA 1: GCATCTTTAGCAAGATACTTCATAGGTACTACTGTGGCGATTGACAGCGTAGAATGAAGG
DNA 2: CCTTCATTCTACGCTGTCAATCGCCACAGTAGTACCTATGAAGTATCTTGCTAAAGATGC
B8: NRC3_wobSeed34_DR1_G6A_o1 (dsDNA)
DNA 1: GCATCAAAAGGTCGAAGGTGAGTATACCCACCCGAAGCGATTGACAGCGTAGAATGAAGG
DNA 2: CCTTCATTCTACGCTGTCAATCGCTTCGGGTGGGTATACTCACCTTCGACCTTTTGATGC
B9: NRC3_wobSeed119_DR4_G12T_o1 (dsDNA)
DNA 1: GCGGAACGAGGTCATTCGAGTTGATAGCATGGCGATGCGATTGACAGCGTAGAATGAAGG
DNA 2: CCTTCATTCTACGCTGTCAATCGCATCGCCATGCTATCAACTCGAATGACCTCGTTCCGC
B10: NRC3_wobSeed120_DR4_T13C_o1 (dsDNA)
DNA 1: GCCCGAGTAGGTCACGAGGGGGCATTCAGTGCGAATGCGATTGACAGCGTAGAATGAAGG
DNA 2: CCTTCATTCTACGCTGTCAATCGCATTCGCACTGAATGCCCCCTCGTGACCTACTCGGGC
B11: NRC3_random_hg19_491_o1 (dsDNA)
DNA 1: GCCGCCTTTAGATTGCAGGCTCCTGGAGAGCTGTCTGCGATTGACAGCGTAGAATGAAGG
DNA 2: CCTTCATTCTACGCTGTCAATCGCAGACAGCTCTCCAGGAGCCTGCAATCTAAAGGCGGC
B12: NRC3_random_hg19_142_o1 (dsDNA)
DNA 1: GCGGTACTCAGTATGTGAAGAATCATGTTGAGGCAGGCGATTGACAGCGTAGAATGAAGG
DNA 2: CCTTCATTCTACGCTGTCAATCGCCTGCCTCAACATGATTCTTCACATACTGAGTACCGC
B13: NRC3_wobSeed53_DR2_A17T_o1 (dsDNA)
DNA 1: GCCCTTACGGGTCACGTGGTTATAGCACGACGAGCGGCGATTGACAGCGTAGAATGAAGG
DNA 2: CCTTCATTCTACGCTGTCAATCGCCGCTCGTCGTGCTATAACCACGTGACCCGTAAGGGC
B14: NRC3_wobSeed45_DR1_A9T_o1 (dsDNA)
DNA 1: GCTGTCAATGTTCAAAGGTAACGTAAGTATCCACACGCGATTGACAGCGTAGAATGAAGG
DNA 2: CCTTCATTCTACGCTGTCAATCGCGTGTGGATACTTACGTTACCTTTGAACATTGACAGC
B15: NRC3_wobSeed124_DR5_T23G_o1 (dsDNA)
DNA 1: GCCCTACTGGGCCATTCAGAGGGCATTGATCATATGGCGATTGACAGCGTAGAATGAAGG
DNA 2: CCTTCATTCTACGCTGTCAATCGCCATATGATCAATGCCCTCTGAATGGCCCAGTAGGGC
B16: NRC3_random_hg19_388_o1 (dsDNA)
DNA 1: GCACAAGTCTACAAACCCTGGGAGAATGAGAAGTGTGCGATTGACAGCGTAGAATGAAGG
DNA 2: CCTTCATTCTACGCTGTCAATCGCACACTTCTCATTCTCCCAGGGTTTGTAGACTTGTGC
B17: NRC3_random_hg19_198_o1 (dsDNA)
DNA 1: GCAGTTATGTCCACTTGCATAAGTGCAACGTTTGGCGCGATTGACAGCGTAGAATGAAGG
DNA 2: CCTTCATTCTACGCTGTCAATCGCGCCAAACGTTGCACTTATGCAAGTGGACATAACTGC
B18: NRC3_random_hg19_444_o1 (dsDNA)
DNA 1: GCGGGTGTGGTCGTGGGCACCTGCAGTCCCAGCTACGCGATTGACAGCGTAGAATGAAGG
DNA 2: CCTTCATTCTACGCTGTCAATCGCGTAGCTGGGACTGCAGGTGCCCACGACCACACCCGC
B19: NRC3_wobSeed13_DR0_A14T_o1 (dsDNA)
DNA 1: GCCGTCCAAGGTCTAGGTCAGTGAAAGAGACTCGAAGCGATTGACAGCGTAGAATGAAGG
DNA 2: CCTTCATTCTACGCTGTCAATCGCTTCGAGTCTCTTTCACTGACCTAGACCTTGGACGGC
B20: NRC3_random_hg19_28_o1 (dsDNA)
DNA 1: GCCATCTAAAGCCTTGACAGGCTGGGATAGCTGCTTGCGATTGACAGCGTAGAATGAAGG
DNA 2: CCTTCATTCTACGCTGTCAATCGCAAGCAGCTATCCCAGCCTGTCAAGGCTTTAGATGGC

From article PMC6555819, “Comprehensive study of nuclear receptor DNA binding provides a revised framework for understanding receptor specificity” come the findings set out here.

Sequence of RXRa (P19793 whole entry): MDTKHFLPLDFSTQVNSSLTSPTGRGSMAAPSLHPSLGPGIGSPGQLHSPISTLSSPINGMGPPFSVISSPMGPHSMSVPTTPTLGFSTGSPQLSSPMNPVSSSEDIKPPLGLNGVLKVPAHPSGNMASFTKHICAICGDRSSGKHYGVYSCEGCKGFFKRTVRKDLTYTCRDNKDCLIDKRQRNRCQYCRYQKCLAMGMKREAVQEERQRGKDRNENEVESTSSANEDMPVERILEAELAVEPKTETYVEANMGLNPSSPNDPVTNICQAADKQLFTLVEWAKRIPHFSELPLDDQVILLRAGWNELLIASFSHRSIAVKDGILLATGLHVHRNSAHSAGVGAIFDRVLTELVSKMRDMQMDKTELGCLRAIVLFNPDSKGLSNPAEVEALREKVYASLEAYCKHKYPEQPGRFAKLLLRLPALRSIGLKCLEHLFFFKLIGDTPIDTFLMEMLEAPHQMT
Sequence of RARg:RXRa (P13631 whole entry, chain 1 of 2): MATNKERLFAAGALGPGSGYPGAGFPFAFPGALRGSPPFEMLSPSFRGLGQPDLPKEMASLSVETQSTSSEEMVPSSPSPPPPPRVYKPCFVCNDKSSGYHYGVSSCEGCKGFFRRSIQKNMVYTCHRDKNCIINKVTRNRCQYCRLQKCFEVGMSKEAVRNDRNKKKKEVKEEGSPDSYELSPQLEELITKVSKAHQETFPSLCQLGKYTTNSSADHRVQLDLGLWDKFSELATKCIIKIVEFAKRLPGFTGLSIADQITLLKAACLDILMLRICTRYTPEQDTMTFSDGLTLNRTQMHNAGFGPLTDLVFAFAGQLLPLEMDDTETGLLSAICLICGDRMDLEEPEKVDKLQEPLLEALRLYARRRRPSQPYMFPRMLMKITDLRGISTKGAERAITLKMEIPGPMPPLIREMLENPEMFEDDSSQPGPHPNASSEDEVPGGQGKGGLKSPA
Sequence of RARg:RXRa (P19793 whole entry, chain 2 of 2): as the sequence (P19793 whole entry) above
Sequence of LXRb:RXRa (P55055 whole entry, chain 1 of 2): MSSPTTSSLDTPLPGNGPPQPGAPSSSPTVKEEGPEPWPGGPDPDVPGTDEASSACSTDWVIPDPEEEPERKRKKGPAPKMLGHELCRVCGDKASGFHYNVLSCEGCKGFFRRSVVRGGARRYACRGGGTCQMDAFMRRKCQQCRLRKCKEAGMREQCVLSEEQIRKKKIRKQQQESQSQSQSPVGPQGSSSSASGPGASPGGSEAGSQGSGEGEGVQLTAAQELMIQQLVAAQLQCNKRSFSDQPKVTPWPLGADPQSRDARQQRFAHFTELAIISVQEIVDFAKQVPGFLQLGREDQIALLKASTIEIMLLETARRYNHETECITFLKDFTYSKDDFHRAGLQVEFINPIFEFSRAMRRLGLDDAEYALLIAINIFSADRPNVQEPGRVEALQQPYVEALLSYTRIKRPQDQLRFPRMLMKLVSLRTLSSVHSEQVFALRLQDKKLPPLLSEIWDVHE
Sequence of LXRb:RXRa (P19793 whole entry, chain 2 of 2): as the sequence (P19793 whole entry) above
Sequence of LXRa:RXRa (Q13133 whole entry, chain 1 of 2): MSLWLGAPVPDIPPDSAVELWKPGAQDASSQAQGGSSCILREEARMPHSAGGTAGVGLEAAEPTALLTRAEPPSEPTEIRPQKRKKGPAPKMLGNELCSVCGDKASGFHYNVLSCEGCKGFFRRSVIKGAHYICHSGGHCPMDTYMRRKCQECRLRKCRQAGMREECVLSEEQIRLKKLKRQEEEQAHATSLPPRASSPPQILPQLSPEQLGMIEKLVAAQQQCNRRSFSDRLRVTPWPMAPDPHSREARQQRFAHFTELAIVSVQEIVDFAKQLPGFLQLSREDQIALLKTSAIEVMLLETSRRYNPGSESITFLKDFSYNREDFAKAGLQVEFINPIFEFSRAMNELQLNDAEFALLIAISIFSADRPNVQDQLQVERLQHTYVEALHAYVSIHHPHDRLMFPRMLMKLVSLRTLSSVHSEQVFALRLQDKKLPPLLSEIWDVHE
Sequence of LXRa:RXRa (P19793 whole entry, chain 2 of 2): as the sequence (P19793 whole entry) above
Sequence of FXR:RXRa (Q96RI1 whole entry, chain 1 of 2): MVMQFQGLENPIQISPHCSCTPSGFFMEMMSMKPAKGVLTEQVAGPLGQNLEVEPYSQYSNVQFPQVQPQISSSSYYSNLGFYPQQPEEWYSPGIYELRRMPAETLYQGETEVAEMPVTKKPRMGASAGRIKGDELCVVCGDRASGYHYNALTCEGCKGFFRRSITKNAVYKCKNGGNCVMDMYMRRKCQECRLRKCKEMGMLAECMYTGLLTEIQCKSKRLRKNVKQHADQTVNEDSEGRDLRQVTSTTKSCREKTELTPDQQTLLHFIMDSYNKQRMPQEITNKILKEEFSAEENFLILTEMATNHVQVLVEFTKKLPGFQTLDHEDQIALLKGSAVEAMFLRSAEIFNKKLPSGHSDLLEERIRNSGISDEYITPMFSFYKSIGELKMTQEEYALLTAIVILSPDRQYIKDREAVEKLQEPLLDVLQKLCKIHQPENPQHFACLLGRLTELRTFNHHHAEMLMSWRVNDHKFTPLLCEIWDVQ
Sequence of FXR:RXRa (P19793 whole entry, chain 2 of 2): as the sequence (P19793 whole entry) above
Sequence of PXR:RXRa (O75469 whole entry, chain 1 of 2): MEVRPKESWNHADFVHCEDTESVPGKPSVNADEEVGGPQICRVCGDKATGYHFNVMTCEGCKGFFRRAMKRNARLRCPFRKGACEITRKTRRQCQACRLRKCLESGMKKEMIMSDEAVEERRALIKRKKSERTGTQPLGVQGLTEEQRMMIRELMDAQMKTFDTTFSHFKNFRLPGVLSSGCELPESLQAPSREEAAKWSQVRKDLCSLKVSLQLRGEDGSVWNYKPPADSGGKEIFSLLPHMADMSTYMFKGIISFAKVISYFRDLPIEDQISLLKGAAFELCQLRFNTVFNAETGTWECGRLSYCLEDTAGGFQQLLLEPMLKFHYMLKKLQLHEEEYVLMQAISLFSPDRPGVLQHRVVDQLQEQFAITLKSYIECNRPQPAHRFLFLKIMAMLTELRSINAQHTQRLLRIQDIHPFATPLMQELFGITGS
Sequence of PXR:RXRa (P19793 whole entry, chain 2 of 2): as the sequence (P19793 whole entry) above
Sequence of RARb:RXRa (P10826 whole entry, chain 1 of 2): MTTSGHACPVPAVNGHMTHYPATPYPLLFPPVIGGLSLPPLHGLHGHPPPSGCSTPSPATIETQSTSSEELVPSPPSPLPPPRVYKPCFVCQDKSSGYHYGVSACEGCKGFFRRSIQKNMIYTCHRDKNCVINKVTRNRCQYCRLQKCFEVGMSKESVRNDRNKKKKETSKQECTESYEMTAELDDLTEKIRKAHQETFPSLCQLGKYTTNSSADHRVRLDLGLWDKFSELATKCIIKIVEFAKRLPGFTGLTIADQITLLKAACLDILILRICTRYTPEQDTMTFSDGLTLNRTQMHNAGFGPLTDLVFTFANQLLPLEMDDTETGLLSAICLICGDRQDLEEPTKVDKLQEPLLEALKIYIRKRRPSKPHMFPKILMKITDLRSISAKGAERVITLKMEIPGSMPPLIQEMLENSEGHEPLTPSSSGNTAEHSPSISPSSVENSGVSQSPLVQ
Sequence of RARb:RXRa (P19793 whole entry, chain 2 of 2): as the sequence (P19793 whole entry) above

The first data set has as its target RXRa (Homo sapiens, UniProt P19793). In words: no ligand; PBM; 180 nM; PBS pH 7.4, 2% milk, 0.02% Triton X-100, 1 mM DTT, BSA, 0.4 mg/ml salmon testes DNA. The settings on record: tags: His cleaved; chain copies: 2; label: surface-attached array probe.
For B1, the binding signal is 8.41 PBM z-score against 500 random probes.
For B2, the binding signal was -0.54 PBM z-score against 500 random probes.
Same read-out and setting: the same measure for B3: 10.8 PBM z-score against 500 random probes.
Consider B4, for which the binding signal is 8.4 PBM z-score against 500 random probes.

Another data set concerns the target RARb:RXRa (Homo sapiens, UniProt P10826;P19793 full;full). In words: no ligand; PBM; 270 nM : 90 nM RXRa; PBS pH 7.4, 2% milk, 0.02% Triton X-100, 1 mM DTT, BSA, 0.4 mg/ml salmon testes DNA. The conditions noted are these: tags: His kept;His cleaved; copies: 1;1; label: surface-attached array probe. In outline: (§1)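 The probes on custom Agilent 4×180K protein-binding microarrays were double-stranded, with 34-nt variable regions bearing direct-repeat seeds, single-nucleotide variants, half-site ablations and random human genomic background sequences. Incubation lasted 1 h with ligand-free nuclear receptor dimers in PBS pH 7.4, 2% milk, 0.02% Triton X-100, 1 mM DTT, 0.2 mg/mL BSA and 0.4 mg/ml salmon testes DNA. Antibodies against each partner (one per run) detected bound dimers, and fluorescence scans were regression-normalized. Binding z-scores take the random background probes as reference.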
For the molecule B5, the binding signal was -0.17 PBM z-score against 500 random probes.
Still for that read-out and setting: the same measure for B1: 5.84 PBM z-score against 500 random probes.
In the case of B6, the binding signal was 5.57 PBM z-score against 500 random probes.
On to B4, for which the binding signal is 5.54 PBM z-score against 500 random probes.

The target in a further data set is VDR:RXRa (Homo sapiens, UniProt P11473;P19793 full;full). The data set is described as above. The settings on record: tags: His kept;His cleaved; copies: 1;1; label: surface-attached array probe. In outline: as §1
Sequence of VDR:RXRa (P11473 whole entry, chain 1 of 2): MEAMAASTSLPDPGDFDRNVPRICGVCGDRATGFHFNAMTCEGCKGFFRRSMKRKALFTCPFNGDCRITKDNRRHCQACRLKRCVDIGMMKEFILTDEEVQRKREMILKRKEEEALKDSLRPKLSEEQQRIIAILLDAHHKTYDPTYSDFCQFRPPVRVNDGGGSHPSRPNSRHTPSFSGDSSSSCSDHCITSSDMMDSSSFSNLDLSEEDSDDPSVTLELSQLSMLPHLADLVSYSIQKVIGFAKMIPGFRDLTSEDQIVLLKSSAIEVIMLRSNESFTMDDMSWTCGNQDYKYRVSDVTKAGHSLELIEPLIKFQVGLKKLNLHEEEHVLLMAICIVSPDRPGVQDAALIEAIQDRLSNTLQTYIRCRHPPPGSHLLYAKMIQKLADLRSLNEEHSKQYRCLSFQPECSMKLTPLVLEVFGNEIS
Sequence of VDR:RXRa (P19793 whole entry, chain 2 of 2): as the sequence (P19793 whole entry) above
Consider B7, for which the binding signal is 0.37 PBM z-score against 500 random probes.
On to B1, for which the binding signal is 7.51 PBM z-score against 500 random probes.
As for B6, the binding signal was 7.14 PBM z-score against 500 random probes.
As to B8, the binding signal is 3.23 PBM z-score against 500 random probes.
Take B3: the binding signal was 7.07 PBM z-score against 500 random probes.
Regarding B4, the binding signal was 6.66 PBM z-score against 500 random probes.
With B9, the binding signal was 6.76 PBM z-score against 500 random probes.
With B10, the binding signal was 7.01 PBM z-score against 500 random probes.

A further data set has as its target LXRa:RXRa (Homo sapiens, UniProt Q13133;P19793 full;full). The description is as above. The conditions noted are these: tags: His kept;His cleaved; copies: 1;1; label: surface-attached array probe. In outline:
as §1
For B11, the binding signal was -0.82 PBM z-score against 500 random probes.
For the molecule B12, the binding signal is 0.28 PBM z-score against 500 random probes.
For the molecule B6, the binding signal is 6.64 PBM z-score against 500 random probes.
For the molecule B13, the binding signal is 3.8 PBM z-score against 500 random probes.
Turning to B2, the binding signal is -0.75 PBM z-score against 500 random probes.
The same measure, in the same setting: the result for B14 reads 0.41 PBM z-score against 500 random probes; that for B3, 7.81 PBM z-score against 500 random probes.
Turning to B15, the binding signal is -0.01 PBM z-score against 500 random probes.
Turning to B16, the binding signal was -0.44 PBM z-score against 500 random probes.
As for B17, the binding signal was -0.41 PBM z-score against 500 random probes.

A further data set concerns the target LXRb:RXRa (Homo sapiens, UniProt P55055;P19793 full;full). The description is as above. The settings on record: tags: His kept;His cleaved; copies: 1;1; label: surface-attached array probe. Summed up: as §1
With B5, the binding signal is -0.41 PBM z-score against 500 random probes.
Same read-out and setting: the same measure for B7: 0.07 PBM z-score against 500 random probes; for B18: 0.06 PBM z-score against 500 random probes; for B19: 0.12 PBM z-score against 500 random probes.
On the same count and under the same terms, the result for B20 reads -1 PBM z-score against 500 random probes.

For another data set, the target named is FXR:RXRa (Homo sapiens, UniProt Q96RI1;P19793 full;full). The data set is described as above. The conditions noted are these: tags: His kept;His cleaved; copies: 1;1; label: surface-attached array probe. Summed up:
as §1
In the case of B3, the binding signal is 8.73 PBM z-score against 500 random probes.
Turning to B4, the binding signal was 8.27 PBM z-score against 500 random probes.
Regarding B9, the binding signal was 7.77 PBM z-score against 500 random probes.
Same read-out and setting: the same measure for B17: -0.27 PBM z-score against 500 random probes.

The target in the next data set is PXR:RXRa (Homo sapiens, UniProt O75469;P19793 full;full). Described as above. The settings on record: tags: His kept;His cleaved; copies: 1;1; label: surface-attached array probe. Summed up:
as §1
As to B11, the binding signal is -1.27 PBM z-score against 500 random probes.
In the case of B12, the binding signal was 0.04 PBM z-score against 500 random probes.
In the case of B5, the binding signal was -0.66 PBM z-score against 500 random probes.
Take B7: the binding signal is -0.14 PBM z-score against 500 random probes.
B1: the binding signal was 6.46 PBM z-score against 500 random probes.
On to B6, for which the binding signal is 7.03 PBM z-score against 500 random probes.
Take B8: the binding signal was 3.15 PBM z-score against 500 random probes.
On the same count and under the same terms, the result for B18 reads -0.37 PBM z-score against 500 random probes; that for B19, 0.19 PBM z-score against 500 random probes; that for B20, -0.65 PBM z-score against 500 random probes.
For B13, the binding signal was 3.42 PBM z-score against 500 random probes.
Take B2: the binding signal was -0.74 PBM z-score against 500 random probes.
Consider B14, for which the binding signal was 0.4 PBM z-score against 500 random probes.
Consider B3, for which the binding signal is 7.42 PBM z-score against 500 random probes.
The same measure, in the same setting: the result for B15 reads 0.42 PBM z-score against 500 random probes.
For B4, the binding signal was 6.45 PBM z-score against 500 random probes.
B16: the binding signal is -0.52 PBM z-score against 500 random probes.
On to B9, for which the binding signal was 6.69 PBM z-score against 500 random probes.
Consider B10, for which the binding signal is 6.39 PBM z-score against 500 random probes.
B17: the binding signal is 0.06 PBM z-score against 500 random probes.

In the next data set the target is RARg:RXRa (Homo sapiens, UniProt P13631;P19793 full;full). Described as above. The conditions noted are these: tags: His kept;His cleaved; copies: 1;1; label: surface-attached array probe. In outline:
as §1
B5: the binding signal was -0.66 PBM z-score against 500 random probes.
The same measure, in the same setting: the result for B1 reads 7.62 PBM z-score against 500 random probes; that for B18, -0.64 PBM z-score against 500 random probes; that for B4, 7.45 PBM z-score against 500 random probes.
